This is an account of results in patent publication US20160266136A1 (Stanford University, published 2016).

Assay [1] addresses T1, mouse Gas6 (mouse, UniProt Q61592 46-674, limits assumed).
T1 construct: Used both for the KinExA value against mouse Gas6 and for the endogenous Gas6 in the serum of the nude mice; also called Gas6 (in serum of mice)
T1 sequence (looked up): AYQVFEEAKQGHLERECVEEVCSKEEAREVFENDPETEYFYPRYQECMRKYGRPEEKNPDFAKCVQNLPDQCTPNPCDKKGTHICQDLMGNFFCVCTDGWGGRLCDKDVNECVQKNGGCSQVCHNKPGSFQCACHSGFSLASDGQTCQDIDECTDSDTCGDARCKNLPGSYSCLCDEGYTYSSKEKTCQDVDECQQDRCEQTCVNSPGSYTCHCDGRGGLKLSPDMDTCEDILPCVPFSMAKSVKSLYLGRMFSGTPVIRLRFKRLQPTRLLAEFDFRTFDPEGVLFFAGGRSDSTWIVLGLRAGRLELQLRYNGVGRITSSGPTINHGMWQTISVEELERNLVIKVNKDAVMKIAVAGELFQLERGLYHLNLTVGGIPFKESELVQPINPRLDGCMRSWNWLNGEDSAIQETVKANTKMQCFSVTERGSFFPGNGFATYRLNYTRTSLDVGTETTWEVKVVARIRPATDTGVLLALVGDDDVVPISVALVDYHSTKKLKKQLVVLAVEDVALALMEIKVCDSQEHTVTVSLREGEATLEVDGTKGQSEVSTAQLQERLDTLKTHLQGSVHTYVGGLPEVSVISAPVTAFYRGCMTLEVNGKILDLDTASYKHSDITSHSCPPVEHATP
Put plainly: KinExA.
Protocol: (§1) A KinExA 3200 instrument (Sapidyne Instruments Inc.) was used to measure equilibrium binding and association rate constants for the Gas6-Axl interactions. […] Adsorption coating of 200 mg of beads was performed using 45 μg of protein at room temp for 1 h. The protein solution was then removed and beads were blocked using PBS with 1% BSA for 2 h at room temp. Beads were stored in blocking buffer at 4° C. and used within two weeks. All binding reactions were carried out in phosphate buffered saline with 1 mg/ml BSA and 0.02% sodium azide.
(§2) For equilibrium binding studies, three independent titrations were completed for each Axl Ig1 or Axl Fc fusion unless otherwise noted. […] Each sample was analyzed twice and data from the three independent equilibrium binding experiments were globally analyzed using n-curve analysis in the KinExA Pro 3.6.2 software (Sapidyne Instruments Inc.) to obtain the Kd value.

Assay [2] has as its target T1, mouse Gas6. As to the kind of experiment: KinExA; column Kd(pM) mGas6. For orientation: A kinetic exclusion assay measures how much of one partner remains free in solution.
Protocol: as §1, §2
The target of assay [3] is T2, Protein S (OriGene) (UniProt P07225 42-676).
T2 construct: Carries a c-Myc tag by the detection used
T2 sequence (looked up): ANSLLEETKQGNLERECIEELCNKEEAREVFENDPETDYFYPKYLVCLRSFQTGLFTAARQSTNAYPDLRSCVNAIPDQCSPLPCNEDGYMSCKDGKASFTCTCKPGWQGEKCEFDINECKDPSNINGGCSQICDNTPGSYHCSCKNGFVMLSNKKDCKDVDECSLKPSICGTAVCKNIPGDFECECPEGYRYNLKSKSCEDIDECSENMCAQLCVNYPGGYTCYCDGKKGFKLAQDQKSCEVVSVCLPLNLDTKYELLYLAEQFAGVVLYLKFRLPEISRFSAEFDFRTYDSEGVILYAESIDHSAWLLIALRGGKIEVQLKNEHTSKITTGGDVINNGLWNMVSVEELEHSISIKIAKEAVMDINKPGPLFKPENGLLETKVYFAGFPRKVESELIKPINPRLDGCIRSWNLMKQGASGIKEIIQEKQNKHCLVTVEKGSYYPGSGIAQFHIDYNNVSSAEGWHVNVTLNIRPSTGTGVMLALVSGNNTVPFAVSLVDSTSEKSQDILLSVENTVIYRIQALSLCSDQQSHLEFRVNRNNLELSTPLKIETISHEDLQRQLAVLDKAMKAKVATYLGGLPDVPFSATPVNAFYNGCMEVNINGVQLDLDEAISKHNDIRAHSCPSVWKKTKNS
Put plainly: KinExA signal test on MYD1 Fc coated beads, Protein S probed with an anti-c-Myc antibody.
Protocol: as §1
To test binding of Protein S (OriGene) to MYD1, 700 μl of a 10 nM solution was flowed over the capture beads.

B1: MYD1 Fc (Fc fusion)
chain: APRGTQAEESPFVSNPGNITGARGLTGTLRCQLQVQGEPPEVHWLRDGQILELADSTQTQVPLGEDEQGDWIVASQLRITSLQLSDTGQYQCLVFLGHQTFVSQPGYVRLEGLPYFLEEPEDRTVAANTPFNLSCQAQGPPEPVDLLWLQDAVPLATAPGHGPQRSLHVPGLNKTSSFSCEAHNAKGVTTSRTATITVLPQQPRNLHLVSRQPTELEVAWTPGLSGIYPLTHCTLQAVLSNDGMGIQAGEPDPPEEPLTSQASVPPHQLRLGSLHPHTPYHIRVACTSSQGPSSWTHWLPVETPEGVPLGPPENISATRNGSQAFVHWQEPRAPLQGTLLGYRLAYQGQDTPEVLMDIGLRQEVTLELQGDGSVSNLTVCVAAYTAAGDGPWSLPVPLEAWRPGQAQPVHQLVKEPSTPAFS
notes: Disulfide-linked dimer from HEK cells; also the capture reagent on the KinExA beads; also called MYD1 Fc fusion; not shown: Fc domain of a human IgG1
Usually Kd stands for a measure of binding affinity in units of concentration. Read a low Kd as tighter binding. For the molecule B1, the values for the Kd in assay [1] and in assay [2] were roughly 1 pM and 1.1 pM, respectively. Besides, the binding result in assay [3] is “no binding (tested: 10 nM)”.
